Results taken from the supplement of paper PMC6757056.
± gives the standard deviation of the averaged measurements.

B1: library; a variant is named by its letters at N, in order (parent)
chain: GCUGUCACCGGUGUAUUACCCUAGUGGUCGACCGGUCUGAUGAGUCUNNNNNNAGACGAAACAGC

Columns and labels:
[1] = variants of: B1; assay: normalized RNA/DNA level with ligand (relative to sTRSVctl = 100) (log10 (% of sTRSVctl)); ligand: hypoxanthine (xanthine aptamer); higher = less ribozyme self-cleavage, higher mRNA level; conditions: ligand concentration (+) RNA-Seq: 5 mM, HEK293T, reporter: mCherry (pCS4076), ligand present: yes
Method in brief: (§1)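 HEK293T cells were transfected with library plasmids carrying ribozyme switches linked to an mCherry reporter, or an eGFP reporter in some ligand experiments, at 4 µg per well of a 6-well plate, with any ligand added 1 h beforehand. After 72 h, total RNA was extracted with EDTA, reverse-transcribed, amplified, barcoded and sequenced. RNA level was defined as RNA reads over DNA reads, normalized to a spiked-in non-cleaving sequence or to the top-ranked sequences. That value was multiplied by 100 and converted to log10, the top set was 25 sequences, and only sequences with ≥100 DNA reads were retained.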

[2] = variants of: B1; assay: normalized RNA/DNA level without ligand (relative to sTRSVctl = 100) (log10 (% of sTRSVctl)); ligand: hypoxanthine (xanthine aptamer); higher = less ribozyme self-cleavage, higher mRNA level; conditions: HEK293T, reporter: mCherry (pCS4076), ligand present: no
Method in brief: as §1

Variant | normalized RNA/DNA level with ligand (log10) [1] | normalized RNA/DNA level without ligand (log10) [2]
CAUCUG | 1.97 ± 0.022 | 1.92 ± 0.081
CAUCUU | 2 ± 0.027 | 1.93 ± 0.047
CAUCUC | 1.957 ± 0.0025 | 2.01 ± 0.021
CAUCUA | 2.01 ± 0.12 | 1.85 ± 0.055
AAUCGU | 1.94 ± 0.023 | 1.69 ± 0.022
AAUCGA | 1.92 ± 0.076 | 1.63 ± 0.034
AAUCGC | 1.92 ± 0.03 | 1.82 ± 0.053
GAUCGU | 1.96 ± 0.11 | 1.838 ± 0.013
GAUCGA | 1.952 ± 0.0048 | 1.809 ± 0.0024
GAUCGC | 1.93 ± 0.023 | 1.8 ± 0.053
CAUCCU | 1.94 ± 0.066 | 1.94 ± 0.023
CAUCCG | 1.95 ± 0.026 | 1.91 ± 0.029
CAUCCC | 1.935 ± 0.0098 | 1.91 ± 0.033
CAUCCA | 1.97 ± 0.056 | 1.94 ± 0.055
GAGUUC | 1.92 ± 0.093 | 1.86 ± 0.053
CAUGUG | 1.93 ± 0.02 | 1.882 ± 0.012
CAUGUC | 1.91 ± 0.056 | 1.92 ± 0.042
CAUGUU | 1.94 ± 0.026 | 1.879 ± 0.0072
CAUGUA | 1.91 ± 0.011 | 1.771 ± 0.0036
AAUGAA | 1.872 ± 0.0038 | 1.71 ± 0.018
GAUAAC | 1.92 ± 0.079 | 1.712 ± 0.0033
CAUCAU | 1.921 ± 0.011 | 1.88 ± 0.043
CAUCAC | 1.96 ± 0.06 | 1.92 ± 0.062
CAUCAA | 1.938 ± 0.011 | 1.81 ± 0.042

Variant | normalized RNA/DNA level with ligand (log10) [1] | normalized RNA/DNA level without ligand (log10) [2]
UAUGAG | 1.86 ± 0.046 | 1.54 ± 0.046
UAUGAA | 1.915 ± 0.013 | 1.73 ± 0.023
UAUGAU | 1.91 ± 0.022 | 1.7488 ± 0.0016
UAUCGA | 1.92 ± 0.035 | 1.76 ± 0.046
UAUCGU | 1.9 ± 0.052 | 1.7 ± 0.091
UAUGGA | 1.906 ± 0.012 | 1.65 ± 0.02
AAUAUU | 1.93 ± 0.088 | 1.88 ± 0.031
AAUAUC | 1.95 ± 0.055 | 1.945 ± 0.0067
UAUUAG | 1.873 ± 0.0072 | 1.6759 ± 0.00016
GAUUCA | 1.961 ± 0.017 | 1.86 ± 0.041
CAUUCA | 1.92 ± 0.04 | 1.78 ± 0.029
UAGUUG | 1.93 ± 0.053 | 1.707 ± 0.0035
UAGUUC | 1.943 ± 0.0072 | 1.87 ± 0.008
UAGUUU | 1.92 ± 0.04 | 1.86 ± 0.023
GAUAGU | 1.88 ± 0.059 | 1.72 ± 0.034
GAUAGC | 1.87 ± 0.025 | 1.55 ± 0.097
UAUAGC | 1.95 ± 0.009 | 1.83 ± 0.054
UAUAGG | 1.852 ± 0.017 | 1.43 ± 0.02
UAUAGA | 1.892 ± 0.0092 | 1.63 ± 0.019
AAUUAU | 1.92 ± 0.026 | 1.82 ± 0.022
AAUCCA | 1.92 ± 0.046 | 1.865 ± 0.015
AAUCCC | 1.94 ± 0.024 | 1.84 ± 0.035
GAUACC | 1.95 ± 0.03 | 1.875 ± 0.016
GAUACU | 1.94 ± 0.069 | 1.87 ± 0.029

Variant | normalized RNA/DNA level with ligand (log10) [1] | normalized RNA/DNA level without ligand (log10) [2]
CAUGCA | 1.979 ± 0.013 | 1.688 ± 0.016
CAUGCC | 1.92 ± 0.1 | 1.84 ± 0.028
GAUCAG | 1.92 ± 0.05 | 1.72 ± 0.016
UAUCAU | 1.922 ± 0.017 | 1.79 ± 0.045
UAUCAG | 1.87 ± 0.019 | 1.7 ± 0.036
AAUACU | 1.8942 ± 0.0003 | 1.833 ± 0.0049
AAUGGU | 1.925 ± 0.016 | 1.592 ± 0.0071
AAUGGC | 1.929 ± 0.0094 | 1.79 ± 0.02
CAUAAG | 1.92 ± 0.016 | 1.71 ± 0.019
CAUAAC | 1.9194 ± 0.0019 | 1.83 ± 0.056
AAUCAG | 1.838 ± 0.018 | 1.56 ± 0.041
AAUCAA | 1.89 ± 0.066 | 1.75 ± 0.068
UAUCUU | 1.97 ± 0.044 | 1.9 ± 0.043
UAUCUC | 2 ± 0.021 | 1.99 ± 0.031
UAUCUG | 1.904 ± 0.0025 | 1.708 ± 0.0037
UAUCUA | 1.92 ± 0.059 | 1.89 ± 0.024
UAUCCA | 1.918 ± 0.0099 | 1.904 ± 0.011
UAUCCU | 1.958 ± 0.0052 | 1.9 ± 0.03
UAUCCC | 1.95 ± 0.045 | 1.9 ± 0.023
GAUAUC | 1.91 ± 0.03 | 1.908 ± 0.0029
GAUAUU | 1.8969 ± 0.0013 | 1.84 ± 0.038
UAUGUU | 1.94 ± 0.06 | 1.85 ± 0.049
UAUGUA | 1.906 ± 0.0084 | 1.837 ± 0.0025
GAUCCU | 1.979 ± 0.014 | 1.948 ± 0.012

Variant | normalized RNA/DNA level with ligand (log10) [1] | normalized RNA/DNA level without ligand (log10) [2]
GAUCCC | 2.05 ± 0.042 | 1.889 ± 0.0035
GAUCCA | 1.908 ± 0.0041 | 1.9 ± 0.03
UAUAUC | 1.94 ± 0.044 | 1.936 ± 0.0031
UAUAUU | 1.907 ± 0.0056 | 1.847 ± 0.0083
CAUAUG | 1.94 ± 0.016 | 1.86 ± 0.042
CAUAUA | 1.9 ± 0.027 | 1.73 ± 0.028
CAUAUC | 1.95 ± 0.0088 | 1.9 ± 0.012
CAUAUU | 1.91 ± 0.044 | 1.8 ± 0.041
CAUACA | 1.9 ± 0.069 | 1.78 ± 0.051
CAUACU | 1.92 ± 0.04 | 1.83 ± 0.052
CAUACC | 1.93 ± 0.023 | 1.891 ± 0.016
CAUUAG | 1.941 ± 0.019 | 1.73 ± 0.054
CAUUAC | 1.9 ± 0.046 | 1.82 ± 0.0041
GAUGUC | 1.95 ± 0.0048 | 1.92 ± 0.02
GAUGUA | 1.887 ± 0.018 | 1.79 ± 0.03
UAUAAC | 1.9 ± 0.025 | 1.829 ± 0.017
UAUAAA | 1.89 ± 0.025 | 1.77 ± 0.04
CAUGGC | 1.97 ± 0.044 | 1.87 ± 0.046
CAUGGA | 1.92 ± 0.05 | 1.7786 ± 0.00037
AAUGUC | 1.98 ± 0.064 | 1.921 ± 0.0048
GAUGCA | 1.97 ± 0.036 | 1.83 ± 0.02
CAUCGG | 1.92 ± 0.055 | 1.63 ± 0.036
CAUCGU | 2 ± 0.038 | 1.94 ± 0.025
CAUCGC | 1.97 ± 0.064 | 1.9 ± 0.021

Variant | normalized RNA/DNA level with ligand (log10) [1] | normalized RNA/DNA level without ligand (log10) [2]
CAUAGG | 1.836 ± 0.015 | 1.43 ± 0.11
CAUAGC | 1.923 ± 0.0099 | 1.86 ± 0.014
CAUAGU | 2 ± 0.039 | 1.88 ± 0.019
GAUCUC | 1.939 ± 0.0052 | 1.976 ± 0.0046
GAUCUG | 1.92 ± 0.051 | 1.58 ± 0.039
GAUCUU | 1.96 ± 0.028 | 1.943 ± 0.0084
GAUCUA | 1.95 ± 0.055 | 1.86 ± 0.033
AAUAAC | 1.919 ± 0.0067 | 1.81 ± 0.029
UAUACG | 1.83 ± 0.042 | 1.686 ± 0.008
UAUACC | 1.95 ± 0.12 | 1.88 ± 0.014
AAUGCC | 1.942 ± 0.015 | 1.83 ± 0.039
AAUGCU | 1.92 ± 0.071 | 1.864 ± 0.011
CAGUUU | 1.95 ± 0.053 | 1.79 ± 0.018
CAGUUG | 1.93 ± 0.046 | 1.801 ± 0.015
UAUGCC | 1.935 ± 0.0058 | 1.87 ± 0.067
UAUGCA | 1.88 ± 0.022 | 1.83 ± 0.019
UAUGCG | 1.8828 ± 0.0017 | 1.67 ± 0.037
UAUGCU | 1.92 ± 0.013 | 1.85 ± 0.03
AAUCUU | 1.94 ± 0.029 | 1.914 ± 0.012
AAUCUC | 2 ± 0.062 | 2.023 ± 0.02
